Results reported in PMC5515355, “Frizzled 7 and PIP2 binding by syntenin PDZ2 domain supports Frizzled 7 trafficking and signalling” (Nature Communications, 2016).
Substitutions are numbered along the chain they refer to. Ends that are not written are not given here. carboxifluorescein = carboxyfluorescein

What was measured:
[1] = biological target: syntenin PDZ1–PDZ2 tandem (amino acids 107–275), wild type (human) (UniProt O00560); assay: ITC; VP-ITC; Frizzled 7 peptide (1.0 mM) injected (32 x 8 μl) into PDZ1–PDZ2 tandem (30–60 μM); 10 mM Mes pH 7.0, 5 mM β-mercaptoethanol; binary sequential binding model
[2] = biological target: T1, syntenin PDZ1–PDZ2 tandem (amino acids 107–275), wild type (human, UniProt O00560 107-275); assay: crystal structure; PDZ tandem co-crystallised with C4-PIP2 and the Frizzled 7 sixmer, molar ratio protein:lipid:peptide 10:23:23; 2.45 Å; settings: both partners purified
T1 construct: syntenin, PDZ1–PDZ2 tandem, amino acids 107–275; also called PDZ tandem of syntenin; PDZ1–PDZ2 tandem wild-type; source: ER2566 cells (pETM-11 vector), purified; not shown: His6, N-terminal, kept
T1 sequence (looked up): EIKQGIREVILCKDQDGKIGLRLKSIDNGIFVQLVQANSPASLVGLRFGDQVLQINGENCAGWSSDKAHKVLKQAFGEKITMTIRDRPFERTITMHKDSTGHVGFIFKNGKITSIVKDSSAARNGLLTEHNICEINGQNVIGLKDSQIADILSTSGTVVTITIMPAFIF

[3] = biological target: T2, syntenin PDZ2 domain (residues 196–275), wild type (human, UniProt O00560 196-275); assay: SPR; competition: PDZ2 wild type (30 μM) incubated with 0–4 mM 6mer Frizzled 7 peptide (KGETAV), then perfused over the Frizzled 7 peptide immobilised on a BIAcore streptavidin chip; equilibrium responses; settings: both partners purified
T2 construct: syntenin, PDZ2 domain, amino acids 196–275; also called PDZ2 wild type; source: ER2566 cells (pETM-11 vector), purified recombinant; not shown: His6, N-terminal, kept
T2 sequence (looked up): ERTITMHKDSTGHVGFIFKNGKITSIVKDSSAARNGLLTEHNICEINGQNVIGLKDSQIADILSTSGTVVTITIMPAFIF

[4] = biological target: T2, syntenin PDZ2 domain (residues …); assay: SPR; BIAcore T200, 25 °C; biotinylated Frizzled 7 19mer peptides (100 RU) immobilised on a streptavidin chip, His-tagged syntenin proteins as analytes; 10 mM HEPES pH 7.4, 150 mM NaCl, 0.005% Tween 20; equilibrium titration, apparent KD; without IP3; settings: both partners purified
[5] = biological target: T1, syntenin PDZ1–PDZ2 tandem (amino acids …); assay: SPR; as a3, but the syntenin protein pre-incubated with 0.5 mM Ins(1,4,5)P3 (IP3, PIP2 head group) before perfusion; apparent KD; settings: both partners purified
[6] = biological target: T2, syntenin PDZ2 domain (residues …); assay: as above; settings: both partners purified
[7] = biological target: T3, syntenin PDZ2 domain (196–275) K214A (human, UniProt O00560 196-275, K214A); assay: as above; settings: both partners purified
T3 construct: syntenin, PDZ2 domain, amino acids 196–275, K214A; also called PDZ2 single mutant K214A; source: ER2566 cells (pETM-11 vector), purified; not shown: His6, N-terminal, kept
T3 sequence (looked up): T2 sequence (looked up) with K19A

[8] = biological target: T4, syntenin PDZ2 domain (196–275) N215D (human, UniProt O00560 196-275, N215D); assay: as above; settings: both partners purified
T4 construct: syntenin, PDZ2 domain, amino acids 196–275, N215D; also called PDZ2 single mutant N215D; source: ER2566 cells (pETM-11 vector), purified; not shown: His6, N-terminal, kept
T4 sequence (looked up): T2 sequence (looked up) with N20D

[9] = biological target: T1, syntenin PDZ1–PDZ2 tandem (amino acids …); assay: SPR; BIAcore T200, 25 °C; biotinylated Frizzled 7 19mer peptides (100 RU) immobilised on a streptavidin chip, His-tagged syntenin proteins as analytes; 10 mM HEPES pH 7.4, 150 mM NaCl, 0.005% Tween 20; equilibrium titration, apparent KD; without IP3; settings: both partners purified
[10] = biological target: T5, syntenin PDZ1–PDZ2 tandem (107–275) mutant K214A/K250A (human, UniProt O00560 107-275, K214A | K250A); assay: as above; settings: both partners purified
T5 construct: syntenin, PDZ1–PDZ2 tandem, amino acids 107–275, K214A and K250A; PDB 4Z33 holds the wild-type parent of the same limits; also called PDZ1–PDZ2 tandem mutant K214A/K250A; K214A/K250A mutant tandem; source: ER2566 cells (pETM-11 vector), purified; not shown: His6, N-terminal, kept
T5 sequence (looked up): T1 sequence (looked up) with K108A, K144A

[11] = biological target: T6, syntenin PDZ2 domain (196–275) K250A (human, UniProt O00560 196-275, K250A); assay: as above; settings: both partners purified
T6 construct: syntenin, PDZ2 domain, amino acids 196–275, K250A; also called PDZ2 single mutant K250A; source: ER2566 cells (pETM-11 vector), purified; not shown: His6, N-terminal, kept
T6 sequence (looked up): T2 sequence (looked up) with K55A

[12] = biological target: T7, syntenin PDZ2 domain (196–275) K214A/K250A (human, UniProt O00560 196-275, K214A | K250A); assay: as above; settings: both partners purified
T7 construct: syntenin, PDZ2 domain, amino acids 196–275, K214A and K250A; also called PDZ2 double mutant; PDZ2 mutant K214A/K250A; source: ER2566 cells (pETM-11 vector), purified; not shown: His6, N-terminal, kept
T7 sequence (looked up): T2 sequence (looked up) with K19A, K55A

[13] = biological target: T1, syntenin PDZ1–PDZ2 tandem (amino acids …); assay: MST; as a7, in the presence of Ins(1,4,5)P3 head group (concentration not stated); fit of Hill's equation; settings: both partners purified

8mer C-terminal peptide from Frizzled 7 (from UniProt O75084 567-574)
KD of the first site (binary sequential binding model) [1]: 20.5 µM | KD of the second site (binary sequential binding model) [1]: 4.3 µM

B1: C-terminal hexapeptide of Frizzled 7 (KGETAV) (peptide)
peptide: KGETAV
notes: Frizzled 7, C-terminal six residues; K-5 is lysine 569; also called Fz7(6mer); 6mer Frizzled 7 peptide
binding result [2]: binds | binding result [3]: binds

B2: Frizzled 7 K-5A mutant 19mer, biotinylated (SWRRFYHRLSHSSAGETAV) (peptide)
peptide: SWRRFYHRLSHSSAGETAV
modifications: also: biotinylated, position not given here
notes: Frizzled 7, last 19 residues with the lysine at position -5 (lysine 569) replaced by alanine; Immobilised on a streptavidin sensor chip; also called Frizzled 7 K-5A 19mer; source: synthetic peptide, GenScript
binding result [4]: binds

B3: Frizzled 7 wild-type 19mer, biotinylated C-terminal peptide (SWRRFYHRLSHSSKGETAV) (peptide)
peptide: SWRRFYHRLSHSSKGETAV
modifications: also: biotinylated, position not given here
notes: Frizzled 7, last 19 residues, part of the cytoplasmic domain; K-5 is lysine 569; Immobilised on a streptavidin sensor chip; also called 19 amino acids C-terminal peptide from Frizzled 7; Frizzled 7 19mer; source: synthetic peptide, GenScript
Kd [5]: 2 µM | Kd [6]: 5 µM | binding result [7]: binds | binding result [8]: binds | Kd [9]: 8 µM | binding result [10]: binds | Kd [4]: 32 µM | binding result [11]: binds | binding result [12]: binds

B4: 6mer C-terminal peptide from Frizzled 7, N-terminally labelled with carboxifluorescein (peptide)
peptide: carboxifluorescein-KGETAV
notes: Frizzled 7, C-terminal six residues; also called Frizzled 7 peptide (microscale thermophoresis); source: synthetic peptide (chemically synthesized, JPT, Germany)
Kd [13]: 1.2 µM
